Assay results: the DeepSol protein solubility set

Assay: soluble on expression in E. coli; label from the status in PepcDB or PDB records

Sequence	soluble on expression in E. coli
MSLNKLCVAALSVNNFCDNREALYGVFDGDRNVEVPYLLQCTMSDILAEELQKTKNEEEYMVNTFIVMQRKLGTAGQKLGGAAVLCHIKHDPVDPGGSFTLTSANVGKCQTVLCRNGKPLPLSRSYIMSCEEELKRIKQHKAIITEDGKVNGVTESTRILGYTFLHPSVVPRPHVQSVLLTPQDEFFILGSKGLWDSLSVEEAVEAVRNVPDALAAAKKLCTLAQSYGCHDSISAVVVQLSVTEDEGHHHHHH	not soluble
MGSDKIHHHHHHMQSRMHPRYYLSLEIFEREQKKIFRKAWLFAGLKTLLSEHNAFITRRIAGIPIVIQNFHGELRAFENVCLHRNALLQTEAVGKRPLVCAYHAWRYDAEGRVDHIPECDAVYRFSAEEKQGLKLRRFALHAVGNVLFINLDTDPLPFEEQFTPAFIDLLESSSNTYDTEVMVTTWHGKFNWKLAYENLRDANHPRFVHPKSLAKTVKFTPTVDEALFRESGLQLTDTSPSALRREMRRFSHAGADAPIPDLQHFGWHELVERWGDQDSYYNWLAFPNLHIASANGGFSFTLEHHIPIAPDRTDLEIYWFTARKKQAYAFSHQVLLAQMHGSKLVVGEDVEIMEQVQAALHADAPLPNQGAYESSNRLVERWYTTLMDGDHDI	not soluble
GPHSMRYYETATSRRGLGEPRYTSVGYVDDKEFVRFDSDAENPRYEPQVPWMEQEGPEYWERITQVAKGQEQWFRVNLRTLLGYYNQSAGGTHTLQRMYGCDVGSDGRLLRGYEQFAYDGCDYIALNEDLRTWTAADMAAQITRRKWEQAGAAEYYRAYLEGECVEWLHRYLKNG	soluble
MQLNATFYSGTCPNASAIVRSTIQQALQSDTRIGASLIRLHFHDCFVNGCDASILLDDTGSIQSEKNAGPNVNSARGFNVVDNIKTALENACPGVVSCSDVLALASEASVSLAGGPSWTVLLGRRDSLTANLAGANSSIPSPIESLSNITFKFSAVGLNTNDLVALSGAHTFGRARCGVFNNRLFNFSGTGNPDPTLNSTLLSTLQQLCPQNGSASTITNLDLSTPDAFDNNYFANLQSNDGLLQSDQELFSTTGSSTIAIVTSFASNQTLFFQAFAQSMINMGNISPLTGSNGEIRLDCKKVNGS	soluble
MVELKVPMFPESVADGTLAQWNKNEGDFVNEGDILAEIETDKVVLEVPATSSGVLKGIKKHAGDTVLSEESLAIIDTAVSTSEPNQQTTNQGNASEATATGQEIDIKAPVFPESVADGTISEWHKKEGEAVSEGDILAEIETDKVVLEVPATSNGVLTKILKTAGETVLSAELIAKITAGGATATTKSEASVGVSQANNDPHLVPSARKAFNASGLDTAANIEGTGKKGRITSEDVKKAVASVNKPQQQTVVINQGARYEKRVKMTRLRQTIANRLVEVQHTNAILTTFNEVDMSAVMELRNKYKDMFVKEHDTKLGFMSFFIKAATEALKKFPDVNASIDGDEIVYHNYFDIGIAVGTDRGLVVPVLRDTDTKSLAELEADVLDKAIKGRDGKLSLEDMQGGTFTITNGGTYGSMLSTPIINSPQSAILGMHNIVERPVVVKGEIKIRPIMYLALSYDHRIIDGGTSVRFLKMIKELIEDPNRILLQV	not soluble
MLAAKNILNRSSLSSSFRIATRLQSTKVQGSVIGIDLGTTNSAVAIMEGKVPKIIENAEGSRTTPSVVAFTKEGERLVGIPAKRQAVVNPENTLFATKRLIGRRFEDAEVQRDIKQVPYKIVKHSNGDAWVEARGQTYSPAQIGGFVLNKMKETAEAYLGKPVKNAVVTVPAYFNDSQRQATKDAGQIVGLNVLRVVNEPTAAALAYGLEKSDSKVVAVFDLGGGTFDISILDIDNGVFEVKSTNGDTHLGGEDFDIYLLREIVSRFKTETGIDLENDRMAIQRIREAAEKAKIELSSTVSTEINLPFITADASGPKHINMKFSRAQFETLTAPLVKRTVDPVKKALKDAGLSTSDISEVLLVGGMSRMPKVVETVKSLFGKDPSKAVNPDEAVAIGAAVQGAVLSGEVTDVLLLDVTPLSLGIETLGGVFTRLIPRNTTIPTKKSQIFSTAAAGQTSVEIRVFQGERELVRDNKLIGNFTLAGIPPAPKGVPQIEVTFDIDADGIINVSARDKATNKDSSITVAGSSGLSENEIEQMVNDAEKFKSQDEARKQAIETANKADQLANDTENSLKEFEGKVDKAEAQKVRDQITSLKELVARVQGGEEVNAEELKTKTEELQTSSMKLFEQLYKNDSNNNNNNNGNNAESGETKQ	not soluble
MKNDTAALAADIVDFWKKAGPDKWFDKDAAFDNHFHDRFRDAHFAAARRELDGWLEGAESSLALMLLLDQFPRNCFRGTAHMYATDPLARFFADEAIRRGHDQAVSEDLRVFFYLPFSHAEDIAAQQRACDLNQPLGGLYLHHAEEHRDIVERFGRFPHRNGILLRETTPEERQYLEEGGFSG	soluble
MKRFARKETIYLRGEEARTLYRLEEGLVRVVELLPDGRLITLRHVLPGDYFGEEALEGKAYRYTAEAMTEAVVQGLEPRAMDHEALHRVARNLARQMRRVQAYEAHLQTGELRARIARYLLFLADTPLSARDRQGIYVTVSHEEIADATASIRESVSKVLADLRREGLIATAYRRVYLLDLAALEREAGSALEAA	soluble
MDQEIKSLELNITQLSAITGAHRQTIASRLKGVKTSGGNGSNLKIYRLVDILTAMMTMPAVTGENDPNKMKPSDRRAWFQSEMTRIELEKEMRTLIPASEVLSVYAVMAKTVVKTLEILPDLLERDAALPPDALEMTQKIIDQLREDLASMTYQACADAINGDDDDNGDEGQEEEQE	not soluble
MSLERTTHQSLNGSWQFQPVAATLHVTPQLQAPAGGWKKINVPDNWYRQGHDISGYAWYQTRFALDAHNASRVAHLVFHGVDYSADVWLNDRYLGHHTGYFQPFEFDVTGLVKPGENQLRVLVNSPLEQPQDWSLHKRLVKGIFSHHDTRPGGAWSERGQEKNTGGIWAPVELQFADRAAVRQLQVTPRKQATEANPQQWVVSTEADIHHDVSHETSVTVEARILPENFKGASFAFKQSQTLQPGGNHIAFSFPVDNPALWWPYEYGHPNLYRLELSVKDASGKLLDQREQVFGVREVKVDDGLQWFINGRRMFLRGTNYIASQWLAEMTPDRYRRDLEMMQAAHINAVRVHAHVTGQDFYELCDRMGILVTQDFPLLWGYSDDPDFIAEARRQAKDMVQLLQRHPSIISWTMHNEPPWDSPWMAQKYPDYHPDINRRLDALLYEDVSKLDTLRVVRKESATKEHEWMGWYFDHWLAFSRPAPTPWSTEFGAQALPNLKSLERMFSKALLWPDTEAKWQVWEYHNFQRKETFEFAGVKQGGNIEEFIANSQHYQARLIQFAVENYRRQRYAPVSAVFQFMFVENWPSINWGIVDYWREPKAGYEALRVAYQPVLPSLEWKEGHHHHHH	not soluble
MKLSVLDQSPIAYGSNAKEALRQTTELAKVTEALGYHRFWVSEHHDASTLAGSSPEVLIAHLAAHTKKIRLGSGGVMLPHYSAYKVAENFKLLEALHPGRIDVGLGRAPGGMPIAKMALQEGKEQNIHKYPLQVKDVIGYLQDDLPTDHRFHGLKATPLIDTVPDVWLLGSSGGSANVAAENGTGFAFAHFINGEGGVQAVESYRETFQPSALFDRPQTSVAIFVICADTDEQADQIASSLDLSLIMLENGQLSKGTPSIESALSYPYSPFERARIRENRKRMIVGSPKAVRQQLVELARAYETEEVIVVTITHRFEDRIRSYELLGEEWNVN	not soluble
MRSQRELTSPMTPLENPGDISDKPRLTTQKLSLGYGQQLIINKLSLSIKNGAFSVIIGPNGCGKSTLLRALSRSLLPQNGSIRLDQQDIQHYKAKVFARQLSLLSQGASISETLTVFDLVSRGRYAHQSFFHQWSTEDERIVKAAISAVNLESLVQQRVSELSGGQRQRAWFAMTLAQHTPIVLLDEPTTYLDIAHQIEMLDLCQELQQQGKTLVLVLHDINQALRYATHLIMLKEGQIYAEGLPESIVTEDSIAAVFGLRCRIITDPESGKPLVIPRRQSR	not soluble
GSPNSPATGEKKECWSWESYLEEQKAITAPVSLFQDSQAVTHNKNGFKLGMKLEGIDPQHPSMYFILTVAEVCGYRLRLHFDGYSECHDFWVNANSPDIHPAGWFEKTGHKLQPPKGYKEEEFSWSQYLRSTRAQAAPKHLFVSQSHSPPPLGFQVGMKLEAVDRMNPSLVCVASVTDVVDSRFLVHFDNWDDTYDYWCDPSSPYIHPVGWCQKQGKPLTPPQDYPDPDNFCWEKYLEETGASAVPTWAFKVRPPHSFLVNMKLEAVDRRNPALIRVASVEDVEDHRIKIHFDGWSHGYDFWIDADHPDIHPAGWCSKTGHPLQPPLGPREPSSAVDSSGRIVTD	soluble
